Source: patent US20190134153A1, “IMMUNOMODULATORY EFFECT OF INHALED KINASE INHIBITOR PEPTIDES IN LUNG” (MOERAE MATRIX, INC., priority 2017, published 2019)

Tests used:
Experiment in all cases: Kinase Profiling Assay
Type in all cases: biochemical
Conditions in all cases: 100 μM
[1] = target: PDGFRα(V561D)(h) (Homo sapiens, UniProt P16234, V561D)
[2] = target: CDK2/cyclinE(h) (Homo sapiens, UniProt P24941)
[3] = target: IR(h), activated (Homo sapiens, UniProt P06213)
[4] = target: T1, ULK2(h) (Homo sapiens, UniProt Q8IYT8)
T1 sequence (Q8IYT8 1-1036): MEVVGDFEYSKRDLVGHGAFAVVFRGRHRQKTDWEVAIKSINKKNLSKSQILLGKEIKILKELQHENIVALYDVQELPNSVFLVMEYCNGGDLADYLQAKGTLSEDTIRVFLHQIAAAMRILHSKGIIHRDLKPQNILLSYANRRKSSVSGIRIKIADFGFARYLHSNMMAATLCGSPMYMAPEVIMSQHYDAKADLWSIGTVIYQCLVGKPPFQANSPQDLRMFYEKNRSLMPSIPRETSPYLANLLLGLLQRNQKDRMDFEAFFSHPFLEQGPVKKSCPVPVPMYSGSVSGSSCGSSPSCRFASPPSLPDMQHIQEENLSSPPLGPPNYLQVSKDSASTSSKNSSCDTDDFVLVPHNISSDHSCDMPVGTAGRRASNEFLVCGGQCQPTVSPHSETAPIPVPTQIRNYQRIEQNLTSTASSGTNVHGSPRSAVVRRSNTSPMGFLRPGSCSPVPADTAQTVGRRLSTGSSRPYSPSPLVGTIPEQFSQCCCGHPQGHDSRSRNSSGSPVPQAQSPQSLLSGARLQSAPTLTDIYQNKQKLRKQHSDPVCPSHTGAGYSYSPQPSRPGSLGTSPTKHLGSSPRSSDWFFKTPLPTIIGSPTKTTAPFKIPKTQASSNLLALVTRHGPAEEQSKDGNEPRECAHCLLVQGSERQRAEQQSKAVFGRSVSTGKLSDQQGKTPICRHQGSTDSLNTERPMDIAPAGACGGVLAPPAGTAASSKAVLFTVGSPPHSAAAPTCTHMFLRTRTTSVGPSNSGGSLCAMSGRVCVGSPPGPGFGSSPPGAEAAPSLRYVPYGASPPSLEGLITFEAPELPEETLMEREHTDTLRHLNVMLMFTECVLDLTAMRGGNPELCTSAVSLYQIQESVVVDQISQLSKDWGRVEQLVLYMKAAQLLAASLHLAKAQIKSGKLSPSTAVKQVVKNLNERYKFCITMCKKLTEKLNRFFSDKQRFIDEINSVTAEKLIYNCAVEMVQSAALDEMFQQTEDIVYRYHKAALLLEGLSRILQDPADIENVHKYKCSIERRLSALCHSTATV

[5] = target: Flt1(h) (Homo sapiens, UniProt P17948)
[6] = target: PDGFRα(h) (Homo sapiens, UniProt P16234)
[7] = target: SAPK2a(h) (Homo sapiens, UniProt Q16539)
[8] = target: Lyn(h) (Homo sapiens, UniProt P07948)
[9] = target: Fyn(h) (Homo sapiens, UniProt P06241)
[10] = target: MLK1(h) (Homo sapiens, UniProt P80192)
[11] = target: T2, Tec(h) activated (Homo sapiens, UniProt P42680)
T2 sequence (P42680 1-631): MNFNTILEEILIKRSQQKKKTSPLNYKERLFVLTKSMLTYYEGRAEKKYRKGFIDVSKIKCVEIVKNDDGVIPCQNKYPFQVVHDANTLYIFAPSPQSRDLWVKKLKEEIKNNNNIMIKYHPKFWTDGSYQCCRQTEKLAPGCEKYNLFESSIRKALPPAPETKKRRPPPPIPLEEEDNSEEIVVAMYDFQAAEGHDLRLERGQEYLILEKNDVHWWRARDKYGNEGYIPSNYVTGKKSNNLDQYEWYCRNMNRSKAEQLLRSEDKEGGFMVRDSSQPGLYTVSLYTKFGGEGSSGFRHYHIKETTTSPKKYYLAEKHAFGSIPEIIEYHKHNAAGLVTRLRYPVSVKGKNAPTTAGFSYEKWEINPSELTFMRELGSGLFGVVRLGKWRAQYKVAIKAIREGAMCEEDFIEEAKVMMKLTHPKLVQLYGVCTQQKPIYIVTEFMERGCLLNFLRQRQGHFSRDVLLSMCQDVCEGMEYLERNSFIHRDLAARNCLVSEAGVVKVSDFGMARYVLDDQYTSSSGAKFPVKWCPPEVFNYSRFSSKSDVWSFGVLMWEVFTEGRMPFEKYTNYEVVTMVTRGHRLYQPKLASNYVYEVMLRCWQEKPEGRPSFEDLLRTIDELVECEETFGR

[12] = target: HIPK2(h) (Homo sapiens, UniProt Q9H2X6)
[13] = target: ACK1(h) (Homo sapiens, UniProt Q07912)
[14] = target: FGFR3(h) (Homo sapiens, UniProt P22607)
[15] = target: TLK2(h) (Homo sapiens, UniProt Q86UE8)

Sequence of Flt1(h) (P17948 27-1338): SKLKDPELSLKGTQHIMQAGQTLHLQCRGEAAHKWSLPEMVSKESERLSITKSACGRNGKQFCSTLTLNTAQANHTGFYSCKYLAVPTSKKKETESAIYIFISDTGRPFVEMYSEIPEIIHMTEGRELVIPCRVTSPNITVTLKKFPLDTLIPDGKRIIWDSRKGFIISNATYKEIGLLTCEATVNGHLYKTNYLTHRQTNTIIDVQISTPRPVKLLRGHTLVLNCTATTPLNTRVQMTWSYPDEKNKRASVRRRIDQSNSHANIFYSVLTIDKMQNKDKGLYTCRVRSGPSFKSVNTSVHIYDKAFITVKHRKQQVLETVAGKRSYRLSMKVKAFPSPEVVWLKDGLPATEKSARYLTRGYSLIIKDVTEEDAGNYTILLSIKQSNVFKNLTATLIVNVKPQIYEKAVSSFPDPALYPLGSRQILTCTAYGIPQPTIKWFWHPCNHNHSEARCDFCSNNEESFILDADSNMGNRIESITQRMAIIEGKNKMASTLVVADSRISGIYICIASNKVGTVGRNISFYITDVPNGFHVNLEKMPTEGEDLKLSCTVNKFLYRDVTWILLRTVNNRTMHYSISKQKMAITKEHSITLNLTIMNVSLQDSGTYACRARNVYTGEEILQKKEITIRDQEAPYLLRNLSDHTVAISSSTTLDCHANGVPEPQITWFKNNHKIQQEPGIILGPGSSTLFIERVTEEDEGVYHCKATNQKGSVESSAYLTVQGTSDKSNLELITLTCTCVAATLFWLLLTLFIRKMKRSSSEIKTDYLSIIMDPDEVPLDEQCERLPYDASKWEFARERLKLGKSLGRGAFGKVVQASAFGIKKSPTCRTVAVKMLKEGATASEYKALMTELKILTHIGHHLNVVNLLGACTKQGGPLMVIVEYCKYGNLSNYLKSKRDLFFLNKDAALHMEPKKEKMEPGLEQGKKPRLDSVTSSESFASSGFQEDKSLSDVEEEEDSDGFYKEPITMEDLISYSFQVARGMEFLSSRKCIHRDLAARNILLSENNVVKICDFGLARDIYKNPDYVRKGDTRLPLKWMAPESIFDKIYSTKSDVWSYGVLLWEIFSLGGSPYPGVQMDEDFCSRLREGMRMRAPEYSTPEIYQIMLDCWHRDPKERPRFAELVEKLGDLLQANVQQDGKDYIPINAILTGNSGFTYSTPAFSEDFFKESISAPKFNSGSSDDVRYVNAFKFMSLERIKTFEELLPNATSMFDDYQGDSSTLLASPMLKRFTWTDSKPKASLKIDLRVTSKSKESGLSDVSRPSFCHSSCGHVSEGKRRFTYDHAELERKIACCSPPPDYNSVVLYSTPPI
Sequence of FGFR3(h) (P22607 23-806): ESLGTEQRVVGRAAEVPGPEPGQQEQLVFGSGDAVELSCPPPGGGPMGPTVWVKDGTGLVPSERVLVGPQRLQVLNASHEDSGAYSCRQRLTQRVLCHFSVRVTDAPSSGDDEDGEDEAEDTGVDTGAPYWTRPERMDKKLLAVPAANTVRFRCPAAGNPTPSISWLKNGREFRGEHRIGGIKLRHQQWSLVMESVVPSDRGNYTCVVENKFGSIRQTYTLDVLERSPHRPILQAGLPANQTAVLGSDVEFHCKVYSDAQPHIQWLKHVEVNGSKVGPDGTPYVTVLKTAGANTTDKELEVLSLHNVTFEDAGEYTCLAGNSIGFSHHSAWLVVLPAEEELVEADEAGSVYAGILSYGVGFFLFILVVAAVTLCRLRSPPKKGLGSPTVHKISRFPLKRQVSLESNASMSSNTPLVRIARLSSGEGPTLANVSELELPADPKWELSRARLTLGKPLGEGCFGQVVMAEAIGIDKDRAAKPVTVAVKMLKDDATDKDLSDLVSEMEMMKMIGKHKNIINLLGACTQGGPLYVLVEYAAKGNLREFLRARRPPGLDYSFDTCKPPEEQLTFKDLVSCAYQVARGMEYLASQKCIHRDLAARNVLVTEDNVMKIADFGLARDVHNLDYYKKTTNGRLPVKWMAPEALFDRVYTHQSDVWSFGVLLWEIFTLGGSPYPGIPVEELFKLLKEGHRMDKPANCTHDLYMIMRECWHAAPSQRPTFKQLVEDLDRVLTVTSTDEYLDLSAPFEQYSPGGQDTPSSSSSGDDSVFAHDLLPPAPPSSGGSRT
Sequence of SAPK2a(h) (Q16539 whole entry): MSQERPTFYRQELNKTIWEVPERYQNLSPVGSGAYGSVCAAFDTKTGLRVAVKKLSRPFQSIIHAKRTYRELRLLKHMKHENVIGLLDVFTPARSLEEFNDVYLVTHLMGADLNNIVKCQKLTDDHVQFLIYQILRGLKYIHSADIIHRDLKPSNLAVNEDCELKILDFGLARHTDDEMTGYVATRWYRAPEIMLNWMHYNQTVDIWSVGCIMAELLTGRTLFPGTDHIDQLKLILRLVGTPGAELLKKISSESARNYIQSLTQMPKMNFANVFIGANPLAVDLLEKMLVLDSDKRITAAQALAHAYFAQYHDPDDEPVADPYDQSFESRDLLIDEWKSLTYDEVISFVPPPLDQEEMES
Sequence of HIPK2(h) (Q9H2X6 whole entry): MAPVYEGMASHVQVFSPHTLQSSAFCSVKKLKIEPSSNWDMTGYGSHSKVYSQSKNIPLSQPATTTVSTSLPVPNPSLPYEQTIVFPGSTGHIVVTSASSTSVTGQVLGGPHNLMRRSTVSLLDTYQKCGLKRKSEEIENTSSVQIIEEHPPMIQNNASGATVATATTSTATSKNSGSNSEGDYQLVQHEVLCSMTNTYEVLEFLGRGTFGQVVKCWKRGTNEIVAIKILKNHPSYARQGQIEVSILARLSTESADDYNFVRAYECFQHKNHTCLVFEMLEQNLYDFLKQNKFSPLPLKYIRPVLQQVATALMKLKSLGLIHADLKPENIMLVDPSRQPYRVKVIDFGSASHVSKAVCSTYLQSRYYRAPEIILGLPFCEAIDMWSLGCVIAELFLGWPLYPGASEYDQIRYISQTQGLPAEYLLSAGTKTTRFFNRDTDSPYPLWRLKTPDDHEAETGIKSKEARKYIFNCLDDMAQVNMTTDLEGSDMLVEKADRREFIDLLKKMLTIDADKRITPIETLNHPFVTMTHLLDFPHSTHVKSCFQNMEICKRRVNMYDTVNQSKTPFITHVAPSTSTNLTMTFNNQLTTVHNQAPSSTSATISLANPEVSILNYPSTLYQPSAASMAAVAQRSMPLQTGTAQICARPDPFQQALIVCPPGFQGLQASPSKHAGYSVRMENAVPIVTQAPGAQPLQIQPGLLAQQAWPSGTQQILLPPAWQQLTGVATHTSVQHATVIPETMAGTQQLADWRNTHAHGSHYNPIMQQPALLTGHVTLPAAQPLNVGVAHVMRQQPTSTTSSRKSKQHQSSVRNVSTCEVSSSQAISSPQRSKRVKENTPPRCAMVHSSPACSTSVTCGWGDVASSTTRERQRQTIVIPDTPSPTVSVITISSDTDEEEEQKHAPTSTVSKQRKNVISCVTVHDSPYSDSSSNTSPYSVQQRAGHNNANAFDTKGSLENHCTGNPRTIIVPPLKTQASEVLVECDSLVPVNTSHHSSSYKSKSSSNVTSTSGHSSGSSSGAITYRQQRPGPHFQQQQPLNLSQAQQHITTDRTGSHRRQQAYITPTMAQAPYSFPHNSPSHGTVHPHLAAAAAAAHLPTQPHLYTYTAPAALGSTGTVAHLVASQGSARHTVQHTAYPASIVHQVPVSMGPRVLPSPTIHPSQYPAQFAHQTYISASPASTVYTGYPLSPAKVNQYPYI
Sequence of PDGFRα(V561D)(h) (P16234 24-1089 V561D): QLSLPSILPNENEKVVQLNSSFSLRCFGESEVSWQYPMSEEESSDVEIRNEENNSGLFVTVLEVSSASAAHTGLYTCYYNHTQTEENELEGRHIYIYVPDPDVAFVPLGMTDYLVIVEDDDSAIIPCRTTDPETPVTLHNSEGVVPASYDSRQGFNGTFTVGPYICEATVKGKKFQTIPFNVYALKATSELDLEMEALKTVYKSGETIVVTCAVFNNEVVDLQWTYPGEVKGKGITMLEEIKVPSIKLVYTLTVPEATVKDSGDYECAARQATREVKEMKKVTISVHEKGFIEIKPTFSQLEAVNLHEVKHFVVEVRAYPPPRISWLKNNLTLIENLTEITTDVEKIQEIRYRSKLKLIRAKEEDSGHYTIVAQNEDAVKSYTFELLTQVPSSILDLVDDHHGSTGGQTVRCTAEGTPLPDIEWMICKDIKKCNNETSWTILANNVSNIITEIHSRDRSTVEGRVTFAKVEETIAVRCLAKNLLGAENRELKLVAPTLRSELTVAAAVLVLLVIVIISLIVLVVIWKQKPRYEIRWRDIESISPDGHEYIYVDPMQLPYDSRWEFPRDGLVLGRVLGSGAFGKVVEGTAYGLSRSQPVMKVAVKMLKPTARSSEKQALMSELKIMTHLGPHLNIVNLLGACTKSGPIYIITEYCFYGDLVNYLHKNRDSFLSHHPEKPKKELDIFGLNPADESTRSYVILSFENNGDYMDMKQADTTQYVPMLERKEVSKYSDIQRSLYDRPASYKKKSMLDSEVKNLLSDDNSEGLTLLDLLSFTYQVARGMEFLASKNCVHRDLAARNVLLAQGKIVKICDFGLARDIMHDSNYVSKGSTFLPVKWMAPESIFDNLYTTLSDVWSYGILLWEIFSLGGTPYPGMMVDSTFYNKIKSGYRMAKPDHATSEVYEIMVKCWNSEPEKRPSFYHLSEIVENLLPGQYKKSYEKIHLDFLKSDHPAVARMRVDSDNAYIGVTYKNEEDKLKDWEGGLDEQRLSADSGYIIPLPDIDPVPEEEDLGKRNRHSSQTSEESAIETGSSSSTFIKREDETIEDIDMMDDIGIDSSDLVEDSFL
Sequence of PDGFRα(h) (P16234 24-1089): as the sequence (P16234 24-1089 V561D) above, with D538V counted along it

| Sequence | % activity [1] [%] | % activity [2] [%] | % activity [3] [%] | % activity [4] [%] | % activity [5] [%] | % activity [6] [%] | % activity [7] [%] | % activity [8] [%] | % activity [9] [%] | % activity [10] [%] | % activity [11] [%] | % activity [12] [%] | % activity [13] [%] | % activity [14] [%] | % activity [15] [%] |
| --- | --- | --- | --- | --- | --- | --- | --- | --- | --- | --- | --- | --- | --- | --- | --- |
| FAKLAARLYRKALARQLGVAA [MMI-0300] | 82 | 94 | 79 | 122 | 69 | 65 | 90 | 69 | 74 | 40 | 56 | 73 | – | – | – |
| HRRIKAWLKKIKALARQLGVAA [MMI-0500] | 146 | 19 | 90 | 124 | 27 | 40 | 52 | 31 | 83 | 43 | 33 | 38 | 64 | 10 | 133 |
| KAFAKLAARLYRKALARQLGVAA [MMI-0400] | 100 | 83 | 59 | 131 | 48 | 40 | 85 | 3 | 54 | 33 | 29 | 90 | 95 | 0 | 151 |
| YARAAARQARAKALNRQLGVA [MMI-0200] | – | – | – | 132 | 96 | 108 | – | 98 | 75 | 84 | 77 | – | 97 | 208 | 129 |
